Ends that are not written are not given here.
B1: recombinant GABARAP (biolayer interferometry) (natural protein, UniProt O95166 1-117, looked up)
chain: MKFVYKEEHPFEKRRSEGEKIRKKYPDRVPVIVEKAPKARIGDLDKKKYLVPSDLTVGQFYFLIRKRIHLRAEDALFFFVNNVIPPTSATMGQLYQEHHEEDFFLYIAYSDESVYGL
notes: GABARAP; construct of the BLI experiment not described; source: recombinant
B2: recombinant LC3C (biolayer interferometry) (natural protein, UniProt Q9BXW4 1-126, looked up)
chain: MPPPQKIPSVRPFKQRKSLAIRQEEVAGIRAKFPNKIPVVVERYPRETFLPPLDKTKFLVPQELTMTQFLSIIRSRMVLRATEAFYLLVNNKSLVSMSATMAEIYRDYKDEDGFVYMTYASQETFG
notes: LC3C; construct of the BLI experiment not described; source: recombinant

target: T1, GST-GABARAPL1 (UniProt Q9H0R8 1-117); experiment: peptide or protein array; two-dimensional scan: 18-mer peptides on cellulose membrane, each position replaced with all 20 amino acids; probed with 1 µg/ml GST-GABARAPL1 for 2 h; anti-GST antibody; conditions: both partners purified
T1 construct: GABARAPL1 (GABA type A receptor associated protein like 1); also called pDest15 (GST)-GABARAPL1; source: E. coli SoluBL21, purified on glutathione-Sepharose 4 Fast Flow beads

| Binder | binding result |
| --- | --- |
| MSTESANTFTLIGEASDG (BECN1, human, amino acids 89-106; source: synthetic peptide, SPOT synthesis on cellulose membrane) [BECN1 89-106 18-mer array peptide, S96T] | binds |
| ESSPILTSFELVKVPDPQ (PIK3C3, human, amino acids 242-259; also called PIK3C3 LIR; source: synthetic peptide, SPOT synthesis on cellulose membrane) [PIK3C3 242-259 18-mer array peptide, wild type] | binds |
| MSTESANSFELIGEASDG (BECN1, human, amino acids 89-106; source: synthetic peptide, SPOT synthesis on cellulose membrane) [BECN1 89-106 18-mer array peptide, T98E] | binds |
| MSTESANSFTWIGEASDG (BECN1, human, amino acids 89-106; source: synthetic peptide, SPOT synthesis on cellulose membrane) [BECN1 89-106 18-mer array peptide, L99W] | binds |
| MSTESANWFTLIGEASDG (BECN1, human, amino acids 89-106; source: synthetic peptide, SPOT synthesis on cellulose membrane) [BECN1 89-106 18-mer array peptide, S96W] | binds |
| ETDLGTDWVNLPSPRFCD (ATG14, human, amino acids 428-445; source: synthetic peptide, SPOT synthesis on cellulose membrane) [ATG14 428-445 18-mer array peptide, E436V] | binds |
| ETDLGTEWENLPSPRFCD (ATG14, human, amino acids 428-445; source: synthetic peptide, SPOT synthesis on cellulose membrane) [ATG14 428-445 18-mer array peptide, D434E] | binds |
| ESSPILTSFLLVKVPDPQ (PIK3C3, human, amino acids 242-259; source: synthetic peptide, SPOT synthesis on cellulose membrane) [PIK3C3 242-259 18-mer array peptide, E251L] | binds |
| MSTESANSFCLIGEASDG (BECN1, human, amino acids 89-106; source: synthetic peptide, SPOT synthesis on cellulose membrane) [BECN1 89-106 18-mer array peptide, T98C] | binds |
| MSTESANSFTLIEEASDG (BECN1, human, amino acids 89-106; source: synthetic peptide, SPOT synthesis on cellulose membrane) [BECN1 89-106 18-mer array peptide, G101E] | binds |
| MSTESANSFVLIGEASDG (BECN1, human, amino acids 89-106; source: synthetic peptide, SPOT synthesis on cellulose membrane) [BECN1 89-106 18-mer array peptide, T98V] | binds |
| MSTESANSWTLIGEASDG (BECN1, human, amino acids 89-106; source: synthetic peptide, SPOT synthesis on cellulose membrane) [BECN1 89-106 18-mer array peptide, F97W] | binds |
| ESSPILTSFILVKVPDPQ (PIK3C3, human, amino acids 242-259; source: synthetic peptide, SPOT synthesis on cellulose membrane) [PIK3C3 242-259 18-mer array peptide, E251I] | binds |
| MSTESANSFILIGEASDG (BECN1, human, amino acids 89-106; source: synthetic peptide, SPOT synthesis on cellulose membrane) [BECN1 89-106 18-mer array peptide, T98I] | binds |
| ETDLGTDWENLPSPRFCD (ATG14, human, amino acids 428-445; also called ATG14 LIR; source: synthetic peptide, SPOT synthesis on cellulose membrane) [ATG14 428-445 18-mer array peptide, wild type] | binds |
| ESSPILTSFELIKVPDPQ (PIK3C3, human, amino acids 242-259; source: synthetic peptide, SPOT synthesis on cellulose membrane) [PIK3C3 242-259 18-mer array peptide, V253I] | binds |
| ESSPILTSFEFVKVPDPQ (PIK3C3, human, amino acids 242-259; source: synthetic peptide, SPOT synthesis on cellulose membrane) [PIK3C3 242-259 18-mer array peptide, L252F] | binds |
| ESSPILTSFVLVKVPDPQ (PIK3C3, human, amino acids 242-259; source: synthetic peptide, SPOT synthesis on cellulose membrane) [PIK3C3 242-259 18-mer array peptide, E251V] | binds |
| MSTESANSFTLLGEASDG (BECN1, human, amino acids 89-106; source: synthetic peptide, SPOT synthesis on cellulose membrane) [BECN1 89-106 18-mer array peptide, I100L] | binds |
| ESSPILTSWELVKVPDPQ (PIK3C3, human, amino acids 242-259; source: synthetic peptide, SPOT synthesis on cellulose membrane) [PIK3C3 242-259 18-mer array peptide, F250W] | binds |

| Binder | binding result |
| --- | --- |
| ETDLGTDFENLPSPRFCD (ATG14, human, amino acids 428-445; source: synthetic peptide, SPOT synthesis on cellulose membrane) [ATG14 428-445 18-mer array peptide, W435F] | binds |
| MSTESANAFTLIGEASDG (BECN1, human, amino acids 89-106; source: synthetic peptide, SPOT synthesis on cellulose membrane) [BECN1 89-106 18-mer array peptide, S96A] | binds |
| ETDLGTDWINLPSPRFCD (ATG14, human, amino acids 428-445; source: synthetic peptide, SPOT synthesis on cellulose membrane) [ATG14 428-445 18-mer array peptide, E436I] | binds |
| ESSPILTSFEWVKVPDPQ (PIK3C3, human, amino acids 242-259; source: synthetic peptide, SPOT synthesis on cellulose membrane) [PIK3C3 242-259 18-mer array peptide, L252W] | binds |
| ESSPILTSFEVVKVPDPQ (PIK3C3, human, amino acids 242-259; source: synthetic peptide, SPOT synthesis on cellulose membrane) [PIK3C3 242-259 18-mer array peptide, L252V] | binds |
| MSTESANSFTLIDEASDG (BECN1, human, amino acids 89-106; source: synthetic peptide, SPOT synthesis on cellulose membrane) [BECN1 89-106 18-mer array peptide, G101D] | binds |
| ETDLGTDWENFPSPRFCD (ATG14, human, amino acids 428-445; source: synthetic peptide, SPOT synthesis on cellulose membrane) [ATG14 428-445 18-mer array peptide, L438F] | binds |
| MSTESANDFTLIGEASDG (BECN1, human, amino acids 89-106; source: synthetic peptide, SPOT synthesis on cellulose membrane) [BECN1 89-106 18-mer array peptide, S96D] | binds |
| ESSPILTSFFLVKVPDPQ (PIK3C3, human, amino acids 242-259; source: synthetic peptide, SPOT synthesis on cellulose membrane) [PIK3C3 242-259 18-mer array peptide, E251F] | binds |
| MSTESANGFTLIGEASDG (BECN1, human, amino acids 89-106; source: synthetic peptide, SPOT synthesis on cellulose membrane) [BECN1 89-106 18-mer array peptide, S96G] | binds |
| MSTESANSFTIIGEASDG (BECN1, human, amino acids 89-106; source: synthetic peptide, SPOT synthesis on cellulose membrane) [BECN1 89-106 18-mer array peptide, L99I] | binds |
| MSTESANEFTLIGEASDG (BECN1, human, amino acids 89-106; source: synthetic peptide, SPOT synthesis on cellulose membrane) [BECN1 89-106 18-mer array peptide, S96E] | binds |
| MSTESANCFTLIGEASDG (BECN1, human, amino acids 89-106; source: synthetic peptide, SPOT synthesis on cellulose membrane) [BECN1 89-106 18-mer array peptide, S96C] | binds |
| MSTESANSFTLIPEASDG (BECN1, human, amino acids 89-106; source: synthetic peptide, SPOT synthesis on cellulose membrane) [BECN1 89-106 18-mer array peptide, G101P] | binds |
| ETDLGTDYENLPSPRFCD (ATG14, human, amino acids 428-445; source: synthetic peptide, SPOT synthesis on cellulose membrane) [ATG14 428-445 18-mer array peptide, W435Y] | binds |
| ESSPILTSFEYVKVPDPQ (PIK3C3, human, amino acids 242-259; source: synthetic peptide, SPOT synthesis on cellulose membrane) [PIK3C3 242-259 18-mer array peptide, L252Y] | binds |
| MSTESANSFTLIGEASDG (BECN1, human, amino acids 89-106; also called BECN1 LIR; source: synthetic peptide, SPOT synthesis on cellulose membrane) [BECN1 89-106 18-mer array peptide, wild type] | binds |
| ESSPILTSFEIVKVPDPQ (PIK3C3, human, amino acids 242-259; source: synthetic peptide, SPOT synthesis on cellulose membrane) [PIK3C3 242-259 18-mer array peptide, L252I] | binds |
| MSTESANSFTFIGEASDG (BECN1, human, amino acids 89-106; source: synthetic peptide, SPOT synthesis on cellulose membrane) [BECN1 89-106 18-mer array peptide, L99F] | binds |

target: recombinant GABARAPL1 (biolayer interferometry) (UniProt Q9H0R8 1-117); experiment: BLI; biotin-LIR peptides (50 µg/ml) on streptavidin biosensors, Atg8-family protein in solution at different concentrations; Octet Red 96; 25°C; global fit, 1:1 model; conditions: both partners purified
Sequence (Q9H0R8 whole entry, looked up): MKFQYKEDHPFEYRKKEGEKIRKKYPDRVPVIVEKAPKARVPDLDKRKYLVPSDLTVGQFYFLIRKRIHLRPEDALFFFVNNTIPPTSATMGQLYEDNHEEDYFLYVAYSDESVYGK

| Binder | Kd |
| --- | --- |
| SSPILTSFELVKVPDP (also: biotin label, place not given here) [biotin-labeled 16-mer PIK3C3 LIR peptide] | 65 µM |
| STESANSFTLIGEASD (also: biotin label, place not given here) [biotin-labeled 16-mer BECN1 LIR peptide] | 7.95 µM |
| ETDLGTDWENLPSPRF (also: biotin label, place not given here) [biotin-labeled 16-mer ATG14 LIR peptide] | 1.9 µM |

target: B1; experiment: as above; conditions: both partners purified

| Binder | Kd |
| --- | --- |
| SSPILTSFELVKVPDP (also: biotin label, place not given here) [biotin-labeled 16-mer PIK3C3 LIR peptide] | 49.5 µM |
| STESANSFTLIGEASD (also: biotin label, place not given here) [biotin-labeled 16-mer BECN1 LIR peptide] | 10.5 µM |
| ETDLGTDWENLPSPRF (also: biotin label, place not given here) [biotin-labeled 16-mer ATG14 LIR peptide] | 2.85 µM |

target: B2; experiment: as above; conditions: both partners purified

| Binder | Kd |
| --- | --- |
| ETDLGTDWENLPSPRF (also: biotin label, place not given here) [biotin-labeled 16-mer ATG14 LIR peptide] | 5.85 µM |

Target: T2, biotin-labeled 16-mer PIK3C3 S2E LIR peptide (human, also: biotin label, place not given here)
T2 chain: SEPILTEFELVKVPDP
Experiment: as above
Conditions: both partners purified

| Binder | fold increase in binding over the wild-type LIR peptide |
| --- | --- |
| B1 | 17 fold |
| B2 | 15 fold |

Target: T3, biotin-labeled 16-mer BECN1 S2E LIR peptide (human, also: biotin label, place not given here)
T3 chain: STEEANEFTLIGEASD
Experiment: as above
Conditions: both partners purified

| Binder | fold increase in binding affinity over the wild-type LIR peptide |
| --- | --- |
| B1 | 3 fold |
| B2 | 8 fold |

From paper PMC6613885 (Autophagy, 2019)
